Test results published in patent US20210403586A1, “MUTANT OF RANKL AND PHARMACEUTICAL COMPOSITION COMPRISING SAME FOR PREVENTING OR TREATING OSTEOPOROSIS” (INDUSTRY-ACADEMIC COOPERATION FOUNDATION CHOSUN UNIVERSITY, priority 2018, published 2021).
“Also recorded” adds a separate entry of the source.

Legend:
[1] = tested on: isolated spleen cells; assay: Th1/Th2 cytokine secretion of isolated spleen cells; assay type: cell-based, mouse; details: culture supernatant of Sham and IM splenocytes stimulated with sRANKL or mRANKL-MT3
Text: To determine whether mRANKL-MT3 immunization influences Th1 and Th2 cytokine production, we evaluated the effects of mRANKL-MT3 on IL-4 and IL-10 secretion, which are markers for Th2 responses, and IFN-γ, a marker for Th1 responses, in the culture supernatant of isolated spleen cells stimulated with sRANKL or mRANKL-MT3 (FIG. 8C).

[2] = tested on: BALB/c mice; assay: Bone destruction by injected mtRANKL, micro-CT; assay type: in vivo, mouse; details: subcutaneous 1.0 mg/kg three times a week
Method: (§1) The right femur of each mouse subjected to each experiment was incised and CT imaging was performed using a Quantum GX pCT imaging system (PerkinElmer, Hopkinton, Mass., USA) located at the Korea Basic Science Institute in Gwangju. As for the X-ray source, the field of view was set to 45 mm, 90 kV and […] (voxel size, 90 μm; scanning time, 14 minutes). CT imaging was performed using a Quantum GX 3D Viewer software. After scanning, image segmentation was performed in Analyze (AnalyzeDirect, Overland Park, Kans., USA). Briefly, the legs were segmented using semi-automatic and manual tools (e.g., object extractor, area expansion, and object separator) using volume editing tools. Then, a 3D rendering of the leg was created, and bone mineral density (BMD), bone volume (BV), bone volume percentage (%), and trabecular thickness were calculated using the ROI tools.
To investigate the bone-destructive effect of mtRANKL, 4-week-old male BALB/c mice (Orient Bio) were placed in a cage capable of accommodating up to 4 animals in a light-controlled environment ([…]) and provided with autoclaved water and both whole and powdered rodent diet (Purina, St. Louis, Mo., USA). Starting from 6 weeks of age, 9 mice were randomly divided into three groups, and each group was subcutaneously injected with wild-type RANKL (Amgen, Thousand Oaks, Calif., USA), mtRANKL purified in Reference Example 2, and saline three times a week (1.0 mg/kg). The trabecular bone in femoral neck was examined by Micro-CT analysis described in Reference Example 6.

[3] = tested on: bone marrow-derived monocytes (BMMs); assay: Inhibition of wild type RANKL-induced TRAP activity by mutant RANKL in BMMs; assay type: cell-based, mouse; details: BMMs treated with mutant and wild type RANKL; even at a 3:1 wild type:mutant ratio
Method: To investigate the optimized inhibitory effect against wild type RANKL, bone marrow-derived monocytes (BMMs) were treated with purified mutant and wild type RANKL (FIG. 2E, F). […] Therefore, we used mRANKL-MT3 for subsequent experiments.
(§2) 4-week old male BALB/c mice were purchased from Orient Bio (Gwangju, Korea) and kept in an animal facility approved by the Chosun University Animal Management Committee (IACUC2017-A0002). After obtaining bone marrow cells from mice, bone marrow mononuclear cells were seeded into 96-well plates (1 Y 10^4 cells/well), and in the absence or presence of various concentrations of compounds, incubated with M-CSF (100 ng/mL) overnight before stimulation with RANKL (50 ng/well). The medium was replaced every other days. 6 days later, the cells were fixed with 4% paraformaldehyde, permeated in 0.1% Triton X-100, and washed with PBS. Then, TRAP activity (Sigma-Aldrich, St. Louis, Mo., USA) staining was performed. TRAP-positive multinuclear cells containing 5 or more nuclei were counted as osteoclasts.

[4] = tested on: bone marrow-derived monocytes (BMMs); assay: TRAP analysis of osteoclastogenesis induced by RANKL variants in BMMs; assay type: cell-based, mouse; details: RANKL-treated primary BMM; listed as mtRANKL
Method: The RANKL-RANK binding sites are K180, D189, R190, H223, H224, which are conserved between humans and mice. We selected 4 mutant RANKLs to be purified. Their size corresponded to the wild type RANKL (39 kDa) (FIG. 2B). Tartrate-resistant acid […] (TRAP) activity was absent for all RANKLs even at 150 ng/mL (FIG. 2C, D).
as §2
To evaluate the effect of mtRANKL on osteoclastogenesis, TRAP analysis was performed on RANKL-treated primary bone marrow-derived macrophages (BMM) by the method described in Reference Example 2, and the results are shown in FIGS. 4B and 4C.

[5] = tested on: ovariectomized (OVX) mice; assay: mtRANKL immunization in ovariectomized (OVX) mice, micro-CT; assay type: in vivo, mouse; details: mice ovariectomized after immunization with mtRANKL vs OVX mice
Method: as §1, with “The right femur of each mouse subjected to each experiment was incised and CT imaging was performed using a Quantum GX pCT imaging system (PerkinElmer, Hopkinton, Mass., USA) located at the Korea Basic Science Institute in Gwangju.” left out
17-week-old […] BALB/c mice were equally divided into a group that was given OVX after immunization with mtRANKL, a group that was given only OVX, and a non-treated negative control group.
The mtRANKL-immunized group was immunized with mtRANKL a total of three times: started with 1st immunization at 52 days, 2nd immunization at 39 days, 3rd immunization at 14 days each before OVX. mtRANKL used in the immunization was injected after mixing with an aluminum hydroxide adjuvant. The amount of mtRANKL was 0.2 mg per mouse.
52 days after 1st immunization, OVX was performed. On day 70 after OVX, serum were collected and tibias were extracted, and then the adhesive soft tissues of tibias were removed. […]

B1: mRANKL-MT3: mouse RANKL mutant: K180R, D189I, R190K, H223F, H224Y; nucleic acid SEQ ID NO: 3 (protein, UniProt O35235 158-316, looked up, variant K180R D189I R190K H223F H224Y)
chain: KPEAQPFAHLTINAASIPSGSHRVTLSSWYHIKGWAKISNMTLSNGKLRVNQDGFYYLYANICFRFYETSGSVPTDYLQLMVYVVKTSIKIPSSHNLMKGGSTKNWSGNSEFHFYSINVGGFFKLRAGEEISIQVSNPSLLDPDQDATYFGAFKVQDID
In the case of B1, the IFN-γ levels [1] is reported as “no significant differences”, the “IL-4 and IL-10 secretion” value [1] is reported as “significantly increased” and the “trabecular bone by Micro-CT (osteoporosis)” value [2] is reported as “no significant change was observed”. The “inhibitory effect against wild type RANKL (TRAP activity)” value [3] was “the most effective at inhibiting TRAP activity”, the “number of TRAP-positive multinuclear osteoclasts / osteoclast differentiation” value [4] was “did not induce osteoclast differentiation; also recorded: led to a reduction of TRAP-positive cells” and the BMD of tibias [5] was “significantly higher”. The “trabecular bones of proximal tibias (micro-CT)” value ([5]; day 70 after OVX) was “thicker fibers and higher density than those of OVX mice”.
